Reference: publication PMC12358912

Assays:
NIPBL (human) = NIPBL (human) (UniProt Q6KC79); experiment: mass photometry; conditions: typically 150 nM protein + 150 nM DNA, then diluted (10-fold for NIPBL), phosphate buffer (HEPES for MC604 repeat), 50 mM NaCl for ATP …
[1] = target: cohesin Trimer (SMC1/SMC3/SCC1);STAG1 (human;human) (UniProt Q14683+Q9UQE7+O60216+Q8WVM7); experiment: mass photometry; conditions: typically 150 nM protein + 150 nM DNA, then diluted (10-fold for NIPBL), phosphate buffer (HEPES for MC604 repeat), 50 mM NaCl for ATP …
Sequence of cohesin Trimer (SMC1/SMC3/SCC1);STAG1 (human;human) (Q14683 whole entry, chain 1 of 3): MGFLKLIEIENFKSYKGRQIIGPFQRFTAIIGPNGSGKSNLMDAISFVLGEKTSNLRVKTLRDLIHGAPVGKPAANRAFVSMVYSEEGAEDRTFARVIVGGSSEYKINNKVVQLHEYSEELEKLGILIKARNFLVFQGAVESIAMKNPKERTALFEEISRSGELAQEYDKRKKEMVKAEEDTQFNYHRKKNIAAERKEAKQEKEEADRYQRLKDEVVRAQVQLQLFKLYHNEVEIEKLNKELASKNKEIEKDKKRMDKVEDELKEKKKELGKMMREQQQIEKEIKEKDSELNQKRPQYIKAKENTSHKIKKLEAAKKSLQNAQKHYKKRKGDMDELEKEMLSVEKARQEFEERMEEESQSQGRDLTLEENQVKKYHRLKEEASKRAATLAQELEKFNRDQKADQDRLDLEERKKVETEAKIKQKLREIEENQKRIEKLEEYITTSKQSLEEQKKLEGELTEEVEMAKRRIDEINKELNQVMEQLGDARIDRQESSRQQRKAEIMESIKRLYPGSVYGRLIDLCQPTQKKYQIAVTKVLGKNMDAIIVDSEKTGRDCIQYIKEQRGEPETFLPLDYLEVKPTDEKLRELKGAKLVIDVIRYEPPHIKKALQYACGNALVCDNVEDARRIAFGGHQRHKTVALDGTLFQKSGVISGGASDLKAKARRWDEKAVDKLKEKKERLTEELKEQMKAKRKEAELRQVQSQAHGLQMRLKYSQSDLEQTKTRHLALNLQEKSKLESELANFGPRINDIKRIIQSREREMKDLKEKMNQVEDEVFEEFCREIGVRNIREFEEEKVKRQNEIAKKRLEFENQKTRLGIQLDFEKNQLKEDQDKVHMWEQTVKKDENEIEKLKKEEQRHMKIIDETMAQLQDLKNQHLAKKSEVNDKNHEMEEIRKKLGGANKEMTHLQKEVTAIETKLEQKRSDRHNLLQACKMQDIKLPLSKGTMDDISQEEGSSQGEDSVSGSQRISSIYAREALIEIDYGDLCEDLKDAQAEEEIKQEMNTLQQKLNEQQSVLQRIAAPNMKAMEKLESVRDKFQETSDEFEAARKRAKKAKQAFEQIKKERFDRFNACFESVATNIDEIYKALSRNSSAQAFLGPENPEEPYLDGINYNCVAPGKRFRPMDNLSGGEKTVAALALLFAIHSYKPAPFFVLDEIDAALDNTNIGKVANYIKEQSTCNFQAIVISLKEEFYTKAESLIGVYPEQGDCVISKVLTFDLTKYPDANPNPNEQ
Sequence of cohesin Trimer (SMC1/SMC3/SCC1);STAG1 (human;human) (Q9UQE7 whole entry, chain 2 of 3): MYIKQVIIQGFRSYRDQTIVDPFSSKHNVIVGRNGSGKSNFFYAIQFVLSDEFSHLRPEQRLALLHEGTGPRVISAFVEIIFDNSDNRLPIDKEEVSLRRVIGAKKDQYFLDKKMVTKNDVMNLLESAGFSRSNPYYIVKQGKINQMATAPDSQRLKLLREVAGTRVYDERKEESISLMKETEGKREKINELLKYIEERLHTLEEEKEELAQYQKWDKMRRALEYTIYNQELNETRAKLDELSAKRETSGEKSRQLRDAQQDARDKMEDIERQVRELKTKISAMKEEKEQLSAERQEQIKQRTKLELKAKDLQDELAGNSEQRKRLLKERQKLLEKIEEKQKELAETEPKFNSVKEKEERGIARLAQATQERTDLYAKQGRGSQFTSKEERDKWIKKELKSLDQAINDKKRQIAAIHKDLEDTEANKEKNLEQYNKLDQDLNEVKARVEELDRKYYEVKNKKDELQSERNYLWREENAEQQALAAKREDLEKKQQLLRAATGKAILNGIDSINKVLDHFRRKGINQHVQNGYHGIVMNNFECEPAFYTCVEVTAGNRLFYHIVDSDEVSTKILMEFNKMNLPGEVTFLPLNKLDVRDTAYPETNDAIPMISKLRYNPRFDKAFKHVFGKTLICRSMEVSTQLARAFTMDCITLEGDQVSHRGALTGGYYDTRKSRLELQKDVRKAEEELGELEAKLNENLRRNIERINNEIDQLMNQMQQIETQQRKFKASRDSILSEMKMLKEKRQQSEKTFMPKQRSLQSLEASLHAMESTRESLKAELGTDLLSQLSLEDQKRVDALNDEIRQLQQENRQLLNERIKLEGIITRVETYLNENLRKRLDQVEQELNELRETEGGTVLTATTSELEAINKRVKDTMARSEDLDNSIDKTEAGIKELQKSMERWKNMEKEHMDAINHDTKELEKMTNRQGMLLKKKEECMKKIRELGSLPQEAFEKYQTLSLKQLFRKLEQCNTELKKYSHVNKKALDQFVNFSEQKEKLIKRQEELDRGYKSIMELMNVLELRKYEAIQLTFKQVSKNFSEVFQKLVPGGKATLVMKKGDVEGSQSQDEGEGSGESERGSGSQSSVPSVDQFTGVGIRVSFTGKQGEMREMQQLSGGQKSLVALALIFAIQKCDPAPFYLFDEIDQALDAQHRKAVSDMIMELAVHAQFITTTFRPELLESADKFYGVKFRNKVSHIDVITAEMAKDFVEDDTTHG
Sequence of cohesin Trimer (SMC1/SMC3/SCC1);STAG1 (human;human) (O60216 whole entry, chain 3 of 3): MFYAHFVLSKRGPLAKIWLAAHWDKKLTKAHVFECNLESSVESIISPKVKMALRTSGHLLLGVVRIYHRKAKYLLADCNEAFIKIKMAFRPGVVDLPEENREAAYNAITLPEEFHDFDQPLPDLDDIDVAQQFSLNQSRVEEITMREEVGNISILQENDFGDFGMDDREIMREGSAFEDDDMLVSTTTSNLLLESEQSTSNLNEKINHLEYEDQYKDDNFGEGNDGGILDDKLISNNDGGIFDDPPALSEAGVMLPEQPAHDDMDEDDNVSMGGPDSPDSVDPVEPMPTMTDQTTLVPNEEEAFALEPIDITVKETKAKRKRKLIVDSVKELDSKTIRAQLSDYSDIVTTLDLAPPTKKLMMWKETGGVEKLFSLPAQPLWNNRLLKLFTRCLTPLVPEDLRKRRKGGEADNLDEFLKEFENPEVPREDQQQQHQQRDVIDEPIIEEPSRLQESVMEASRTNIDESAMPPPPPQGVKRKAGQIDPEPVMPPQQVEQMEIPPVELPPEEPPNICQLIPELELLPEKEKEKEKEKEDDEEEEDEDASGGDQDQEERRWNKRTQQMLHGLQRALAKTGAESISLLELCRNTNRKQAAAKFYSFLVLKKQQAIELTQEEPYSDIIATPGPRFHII

STAG1 (human) = target: T1, STAG1 (human) (UniProt Q8WVM7); experiment: mass photometry; conditions: typically 150 nM protein + 150 nM DNA, then diluted (10-fold for NIPBL), phosphate buffer (HEPES for MC604 repeat), 50 mM NaCl for ATP …
T1 sequence: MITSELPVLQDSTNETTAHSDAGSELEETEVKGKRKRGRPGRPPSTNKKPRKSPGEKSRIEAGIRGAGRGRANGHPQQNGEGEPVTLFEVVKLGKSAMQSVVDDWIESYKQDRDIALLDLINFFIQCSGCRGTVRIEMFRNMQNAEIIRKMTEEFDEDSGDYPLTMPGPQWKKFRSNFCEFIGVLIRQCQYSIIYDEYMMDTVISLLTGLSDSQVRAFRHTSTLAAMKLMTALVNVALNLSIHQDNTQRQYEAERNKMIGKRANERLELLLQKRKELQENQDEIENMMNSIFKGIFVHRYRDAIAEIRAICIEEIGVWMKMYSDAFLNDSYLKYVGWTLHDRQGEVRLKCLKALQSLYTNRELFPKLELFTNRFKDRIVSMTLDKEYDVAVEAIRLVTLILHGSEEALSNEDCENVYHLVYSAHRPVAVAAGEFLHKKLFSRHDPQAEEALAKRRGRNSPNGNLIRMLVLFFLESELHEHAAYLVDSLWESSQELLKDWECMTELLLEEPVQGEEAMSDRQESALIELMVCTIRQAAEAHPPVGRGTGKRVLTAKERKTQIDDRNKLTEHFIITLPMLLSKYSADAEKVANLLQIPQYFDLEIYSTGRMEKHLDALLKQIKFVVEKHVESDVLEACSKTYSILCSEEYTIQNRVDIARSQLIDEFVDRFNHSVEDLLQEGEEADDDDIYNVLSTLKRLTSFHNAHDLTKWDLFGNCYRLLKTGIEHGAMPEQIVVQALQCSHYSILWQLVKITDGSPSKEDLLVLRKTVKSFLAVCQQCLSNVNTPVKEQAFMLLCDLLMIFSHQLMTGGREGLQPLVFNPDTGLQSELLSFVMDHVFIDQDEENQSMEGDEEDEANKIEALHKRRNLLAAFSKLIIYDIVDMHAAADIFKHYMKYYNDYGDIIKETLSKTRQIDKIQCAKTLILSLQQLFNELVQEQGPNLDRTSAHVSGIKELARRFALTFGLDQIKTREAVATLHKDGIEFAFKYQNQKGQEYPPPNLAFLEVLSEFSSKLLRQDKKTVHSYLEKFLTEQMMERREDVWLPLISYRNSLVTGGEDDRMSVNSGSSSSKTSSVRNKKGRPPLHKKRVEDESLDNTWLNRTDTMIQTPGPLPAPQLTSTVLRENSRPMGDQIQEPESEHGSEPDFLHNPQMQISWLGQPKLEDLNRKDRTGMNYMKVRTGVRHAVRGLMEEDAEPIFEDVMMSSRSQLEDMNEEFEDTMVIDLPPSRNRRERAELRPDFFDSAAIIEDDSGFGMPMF

NIPBL-MAU2 (human) = NIPBL-MAU2 (human) (UniProt Q6KC79+Q9Y6X3); experiment: mass photometry; conditions: typically 150 nM protein + 150 nM DNA, then diluted (10-fold for NIPBL), phosphate buffer (HEPES for MC604 repeat), 50 mM NaCl for ATP …
[2] = target: SMC1/SMC3/SCC1 cohesin Trimer (UniProt Q14683); experiment: mass photometry; in solution; two components mixed and equilibrated: 150 nM cohesin Trimer sample with 150 nM NIPBL, or with 150 nM or 80 nM STAG1 (total protein concentrations); KD from individual mass distributions; ATP is said not to affect these 1:1 interactions
Sequence of SMC1/SMC3/SCC1 cohesin Trimer (Q14683 whole entry, chain 1 of 3): as the sequence (Q14683 whole entry, chain 1 of 3) above
Sequence of SMC1/SMC3/SCC1 cohesin Trimer (chain, as listed by the source, chain 2 of 3): as the sequence (Q9UQE7 whole entry, chain 2 of 3) above
Sequence of SMC1/SMC3/SCC1 cohesin Trimer (chain, as listed by the source, chain 3 of 3): as the sequence (O60216 whole entry, chain 3 of 3) above

Row | Substance | Kd (NIPBL (human)) [nM] | Kd [1] [nM] | Kd (STAG1 (human)) [nM] | Kd (NIPBL-MAU2 (human)) [nM] | Kd [2] [nM]
1 | CATATGTGCAGTCCCCCCATAAAAAAACCCGCCGAAGCGGGTTTTTACGTTATTTGCGGATTTTAATTAACTAGTTCTAGAGCTCACGTGCAGCTGTCGACGGTACCTGCAGGCCGGCCAGTACTGGGCCCCAACAGATAAAACGAAAGGCCCAGTCTTTCGACTGAGCCTTTCGTTTTATTGGGCCCCCTTGGTCAAATTGGGTATACCCATTTGGGCCTGGTCTGGCCGGCATGGCGCATTACAGCGGTACGCAATTTAAATGCGCCTAGCGCATTTTCCCGACCTTAATGCGCCTCGCG (double strand) [MC302 supercoiled minicircle] | < 10 | 169 | 1350 | 12.2 | –
2 | NIPBL, Q6KC79 1-2804 | – | – | – | – | 20
